Results taken from patent US20070166308A1 (Amgen, published 2007).

T1: VCAM (Panvera) (UniProt P19320 25-698, limits assumed)
T1 sequence (looked up): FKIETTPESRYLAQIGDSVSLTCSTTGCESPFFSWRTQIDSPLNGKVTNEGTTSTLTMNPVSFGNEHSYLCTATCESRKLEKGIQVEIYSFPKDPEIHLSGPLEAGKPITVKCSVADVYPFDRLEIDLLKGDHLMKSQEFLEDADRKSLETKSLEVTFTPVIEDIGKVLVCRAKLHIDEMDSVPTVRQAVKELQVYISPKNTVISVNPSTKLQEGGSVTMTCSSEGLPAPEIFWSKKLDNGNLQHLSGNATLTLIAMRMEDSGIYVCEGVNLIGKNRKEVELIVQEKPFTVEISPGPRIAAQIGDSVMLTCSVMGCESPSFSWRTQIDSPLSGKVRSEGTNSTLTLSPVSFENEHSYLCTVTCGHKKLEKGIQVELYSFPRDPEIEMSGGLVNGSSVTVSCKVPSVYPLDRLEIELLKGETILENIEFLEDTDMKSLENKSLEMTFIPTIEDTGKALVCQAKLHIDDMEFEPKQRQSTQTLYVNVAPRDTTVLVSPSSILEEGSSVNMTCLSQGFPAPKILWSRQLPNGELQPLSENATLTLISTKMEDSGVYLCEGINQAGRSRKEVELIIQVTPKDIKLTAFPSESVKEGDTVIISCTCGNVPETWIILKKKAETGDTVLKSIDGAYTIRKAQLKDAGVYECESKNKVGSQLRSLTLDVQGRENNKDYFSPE


Legend:
[1] = target: T2, MAdCAM-IgG1 Fc fusion protein (human); assay: MAdCAM-IgG1 Fc fusion / JY cell adhesion assay, mean IC50
T2 construct: Expressed in CHO-DHFR cells; also called MAdCAM-IgFc; soluble MAdCAM (in the sandwich ELISA)
T2 sequence (chain, as listed by the source limits assumed): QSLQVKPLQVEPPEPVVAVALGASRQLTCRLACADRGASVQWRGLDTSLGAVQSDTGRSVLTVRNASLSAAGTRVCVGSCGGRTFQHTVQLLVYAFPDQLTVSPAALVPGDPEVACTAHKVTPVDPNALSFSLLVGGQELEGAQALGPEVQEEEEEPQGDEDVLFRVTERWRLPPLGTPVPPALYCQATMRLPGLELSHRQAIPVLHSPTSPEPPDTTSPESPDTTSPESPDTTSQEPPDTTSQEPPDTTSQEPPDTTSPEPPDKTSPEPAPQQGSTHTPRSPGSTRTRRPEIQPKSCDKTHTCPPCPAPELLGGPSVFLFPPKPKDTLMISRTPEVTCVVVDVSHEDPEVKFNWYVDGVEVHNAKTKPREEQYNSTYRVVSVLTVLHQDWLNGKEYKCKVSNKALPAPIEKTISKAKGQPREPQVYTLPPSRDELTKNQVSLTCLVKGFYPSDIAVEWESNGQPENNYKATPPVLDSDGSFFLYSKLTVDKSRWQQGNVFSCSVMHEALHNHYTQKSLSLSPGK
Description: (§1) The cells were washed twice with RPMI 1640 media (Gibco) containing 2 mM L-glutamine (Gibco) by centrifugation (240 g), resuspending the final cell pellet at 2×10⁶ cells/mL in RPMI 1640 for Calcein AM loading. Calcein AM (Molecular Probes #C-3099) was added to the cells as a 1:200 dilution in DMSO (ca. final concentration 5 μM) and the cells protected from light during the course of the incubation (37° C. for 30 min). During this cell incubation step the antibodies to be tested, were diluted as follows: for single dose testing, the antibodies were made up to 3 μg/mL (1 μg/mL final) in 0.1 mg/mL BSA (Sigma#A3059) in PBS; for full IC₅₀ curves, the antibodies were diluted in 0.1 mg/mL BSA/PBS, with 3 μg/mL (1 μg/mL final) being the top concentration, then doubling dilutions (1:2 ratio) across the plate. The final well of the row was used for determining total binding, so 0.1 mg/ml BSA in PBS was used.
(§2) After blocking, the plate contents were flicked out and 50 μL of antibodies/controls were added to each well and the plate incubated at 37° C. for 20 min. During this time, Calcein-loaded JY cells were washed once with RPMI 1640 media containing 10% fetal bovine serum and once with 1 mg/mL BSA/PBS by centrifugation, resuspending the final cell pellet to 1×10⁶/mL in 1 mg/mL BSA/PBS. 100 μL of cells were added to each well of the U bottomed plate, the plate sealed, briefly centrifuged (1000 rpm for 2 min) and the plate then incubated at 37° C. for 45 min. At the end of this time, the plates were washed with a Skatron plate washer and fluorescence measured using a Wallac Victor² 1420 Multilabel Reader (excitation λ 485 nm, emission λ 535 nm count from top, 8 mm from bottom of plate, for 0.1 sec with normal emission aperture). For each antibody concentration, percent adhesion was expressed as a percentage of maximal fluorescence response in the absence of any antibody minus fluorescence associated with non-specific binding. The IC₅₀ value is defined as the anti-MAdCAM antibody concentration at which the adhesion response is decreased to 50% of the response in the absence of anti-MAdCAM antibody.

VCAM (Panvera) = target: T1, VCAM (Panvera); assay: cell-based or functional assay
[2] = target: Fibronectin cell binding fragment (110 Kd, Europa Bioproducts Ltd, Cat. No. UBF4215-18) (UniProt P02751-1 722-1635); assay: cell-based or functional assay
Chain of Fibronectin cell binding fragment (110 Kd, Europa Bioproducts Ltd, Cat. No. UBF4215-18) (P02751 other isoform, or with tags, fused parts or gaps limits assumed): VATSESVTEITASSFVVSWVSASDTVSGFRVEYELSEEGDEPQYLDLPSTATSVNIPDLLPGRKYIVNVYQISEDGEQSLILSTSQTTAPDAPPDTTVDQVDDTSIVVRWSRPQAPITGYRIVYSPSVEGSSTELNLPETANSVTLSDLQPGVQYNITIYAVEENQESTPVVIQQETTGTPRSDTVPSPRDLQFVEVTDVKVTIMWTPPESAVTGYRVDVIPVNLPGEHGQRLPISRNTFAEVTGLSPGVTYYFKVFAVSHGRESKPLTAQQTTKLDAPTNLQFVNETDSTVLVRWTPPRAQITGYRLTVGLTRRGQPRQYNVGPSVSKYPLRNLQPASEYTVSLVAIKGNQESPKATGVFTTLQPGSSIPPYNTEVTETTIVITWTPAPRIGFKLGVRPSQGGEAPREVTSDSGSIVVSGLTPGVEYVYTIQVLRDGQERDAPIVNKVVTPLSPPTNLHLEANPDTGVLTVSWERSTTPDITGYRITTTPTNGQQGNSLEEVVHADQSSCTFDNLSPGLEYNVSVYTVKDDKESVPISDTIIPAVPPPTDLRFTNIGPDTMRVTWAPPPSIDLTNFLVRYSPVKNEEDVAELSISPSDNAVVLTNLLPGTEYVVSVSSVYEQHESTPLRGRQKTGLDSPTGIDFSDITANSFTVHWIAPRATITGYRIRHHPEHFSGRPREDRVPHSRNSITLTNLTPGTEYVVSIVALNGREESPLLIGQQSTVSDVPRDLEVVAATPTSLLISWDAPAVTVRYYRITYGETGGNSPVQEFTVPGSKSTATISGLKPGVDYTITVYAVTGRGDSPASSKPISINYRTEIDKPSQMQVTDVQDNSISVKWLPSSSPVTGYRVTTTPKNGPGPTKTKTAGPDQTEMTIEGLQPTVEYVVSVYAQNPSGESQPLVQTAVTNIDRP

[3] = target: T2, MAdCAM-IgG1 Fc fusion protein; assay: adhesion of calcein-loaded α4β7+ JY cells to coated MAdCAM-IgG1 Fc, blocked by antibody
Description: as §1
as §2, with “The IC₅₀ value is defined as the anti-MAdCAM antibody concentration at which the adhesion response is decreased to 50% of the response in the absence of anti-MAdCAM antibody.” left out

Binder | IC50 [1] | inhibition of adhesion of α4β1+/α5β1+ Jurkat T-cells to coated VCAM (VCAM (Panvera)) | inhibition of adhesion of α4β1+/α5β1+ Jurkat T-cells to coated Fibronectin cell binding fragment [2] | IC50 [3]
modified anti-MAdCAM monoclonal antibody 7.26.4-mod (antibody, human IgG2, kappa, V domains shown, human IgG2 kappa, parental heavy chain with modified kappa chain, made in HEK 293T cells; signal peptide left out) VH: QVQLVQSGAEVKKPGASVKVSCEASGYTFTSYGIDWVRQAPGQGLEWMGWISVYSGNTNYAQKLQGRVTMSTDTSTSTAYMELRSLRSDDTAVYYCAREGSSSSGDYYYGMDVWGQGTTVTVSS VL: DIVMTQTPLSLSVTPGQPASISCKSSQSLLYSDGKTYLFWYLQKPGQPPQLLIYEVSNRFSGVPDRFSGSGSGTDFTLKISRVEAEDVGVYYCMQSIQLPWTFGQGTKVEIKR | 0.033 µg/mL | – | – | –
anti-MAdCAM monoclonal antibody 7.16.6 (antibody, human IgG2, kappa, V domains shown) VH: QVQLVQSGAEVKKPGASVKVSCKASGYTFTSYGINWVRQAPGQGLEWMGWISVYSGNTNYAQKVQGRVTMTADTSTSTAYMDLRSLRSDDTAVYYCAREGSSSSGDYYYGMDVWGQGTTVTVSS VL: DIVMTQTPLSLSVTPGQPASISCKSSQSLLHTDGTTYLYWYLQKPGQPPQLLIYEVSNRFSGVPDRFSGSGSGTDFTLKISRVEAEDVGIYYCMQNIQLPWTFGQGTKVEIKR | – | > 100 fold | > 100 fold | –
anti-MAdCAM monoclonal antibody 7.20.5 (antibody, human IgG2, kappa, V domains shown, fully human IgG2 kappa from hybridoma; signal peptide left out) VH: QVQLQESGPGLVKPSETLSLTCTVSGSSISSYHWNWIRQPAGKGLEWIGRIYTSGSTNYNPSLKSRVTMSLDTSKNQFSLKLSSVTAADTAVYYCAREGVRYYYASGSYYYGLDVWGQGTTVTVSS VL: not shown | – | > 100 fold | > 100 fold | < 0.1 µg/mL
anti-MAdCAM monoclonal antibody 1.7.2 (antibody, human IgG2, kappa, V domains shown) VH: EVQLVESGGGLVKPGGSLRLSCVASGFTFTNAWMIWVRQAPGKGLEWVGRIKRKTDGGTTDYAAPVKGRFTISRDDSKNTLYLQMNSLKTEDTAVYYCTTGGVAEDYWGQGTLVTVSS VL: not shown | – | > 100 fold | > 100 fold | –
anti-MAdCAM monoclonal antibody 1.8.2 (antibody, human IgG2, kappa, V domains shown) VH: EVQLVESGGGLVKPGGSLRLSCVVSGFTFTNAWMIWVRQAPGKGLEWVGRIKRKTDGGTTDYAAPVKGRFTISRDDSKNTLYLQMNSLKTEDTAVYYCTTGGVAEDYWGQGTLVTVSS VL: not shown | – | > 100 fold | > 100 fold | –
anti-MAdCAM monoclonal antibody 6.14.2 (antibody, human IgG4, kappa, V domains shown) VH: EVQLLESGGGLVQPGGSLRLSCAASGLTFNNSAMTWVRQAPGKGLEWVSTTSGSGGTTYYADSVKGRFTISRDSPKNTLYLQMNSLRAEDTAVYYCAARGYSYGTTPYEYWGQGTLVTVSS VL: DIQMTQSPSSLSASVGDRVTITCRASRSISSYLNWYQQKPGKAPKVLIFFVSSLQSGVPSRFSGSGSGTDFTLTISSLQPEDFATYYCQQNYIPPITFGQGTRLEIRR | – | > 100 fold | > 100 fold | –
anti-MAdCAM monoclonal antibody 6.22.2 (antibody, human IgG4, kappa, V domains shown, fully human IgG4 kappa from hybridoma; signal peptide left out; kappa chain stained positive for glycosylation) VH: QVQLVESGGGVVQPGRSLRLSCAASGHTFSSDGMHWVRQAPGKGLEWVAIIWYDGSNKYYADSVKGRFTISRDNSKNTLYLQMNSLRAEDTAVYYCARDPGYYYGMDVWGQGTTVTVSS VL: EIVLTQSPDFQSVTPKEKVTITCRASQRIGSSLHWYQQKPDQSPKLLIKYASQSFSGVPSRFSGSGSGTNFTLTINGLEAEDAATYYCHQSGRLPLTFGGGTKVEIKR | 0.018 µg/mL | > 100 fold | > 100 fold | –
anti-MAdCAM monoclonal antibody 6.34.2 (antibody, human IgG4, kappa, V domains shown, fully human IgG4 kappa from hybridoma; signal peptide left out; kappa chain stained positive for glycosylation) VH: QVQLVESGGGVVQPGRSLRLSCAASGFTFSSYGMHWVRQAPGKGLEWVAVISNDGNNKYYADSVKGRFTISRDNSKNTLYLQMNSLSAEDTAVYYCARDSTAITYYYYGMDVWGQGTTVTVSS VL: DIQMTQSPSSLSASVGDRVTITCRASQNISSYLNWFQQKPGKAPKLLIYAASGLKRGVPSRFSGSGSGTDFTLTIRTLQPDDFATYSCHQSYSLPFTFGPGTKVDIKR | 0.013 µg/mL | > 100 fold | > 100 fold | –
anti-MAdCAM monoclonal antibody 6.67.1 (antibody, human IgG4, kappa, V domains shown, fully human IgG4 kappa from hybridoma; signal peptide left out; kappa chain stained positive for glycosylation) VH: QVQLQESGPGLVKPSETLSLTCTVSGDSISSNYWSWIRQPAGKGLEWIGRIYTSGGTNSNPSLRGRVTILADTSKNQFSLKLSSVTAADTAVYYCARDRITIIRGLIPSFFDYWGQGTLVTVSS VL: not shown | 0.013 µg/mL | > 100 fold | > 100 fold | –
anti-MAdCAM monoclonal antibody 6.73.2 (antibody, human IgG4, kappa, V domains shown) VH: EVQLLESGGDLVQPGGSLRLSCAASGFTFRSYAMNWVRQAPGKGLEWVSVISGRGGTTYYADSVKGRFTISRDNSKNTLYLQMNSLRAEDAAVYYCAKIAVAGEGLYYYYGMDVWGQGTTVTVSS VL: DIQMTQSPSSLSASVGDRVTFTCRASQNITNYLNWYQQKPGKAPKLLIYAASSLPRGVPSRFRGSGSGTDFTLTISSLQPEDFATYYCQQSYSNPPECGFGQGTTLDIKR | – | > 100 fold | > 100 fold | –
anti-MAdCAM monoclonal antibody 6.77.1 (antibody, human IgG4, kappa, V domains shown, fully human IgG4 kappa from hybridoma; signal peptide left out; kappa chain stained positive for glycosylation) VH: EVQLVESGGGLVKPGGSLRLSCAASGFTFSSYSMNWVRQAPGKGLEWVSSISSSSSYIYYADSVKGRFTISRDNAKNSLYLQMNSLRAEDTAVYYCARDGYSSGWSYYYYYGMDVWGQGTTVTVSS VL: DIVMTQTPLSLSVTPGQPASISCNSSQSLLLSDGKTYLNWYLQKPGQPPQLLIYEVSNRFSGVPDRFSGSGSGTDFTLKISRVEAEDVGVYSCMQSIQLMCSFGQGTKLEIKR | – | > 100 fold | > 100 fold | –
modified anti-MAdCAM monoclonal antibody 6.22.2-mod (antibody, human IgG2, kappa, V domains shown, human IgG2 kappa, made in HEK 293T cells; signal peptide left out) VH: QVQLVESGGGVVQPGRSLRLSCAASGFTFSSDGMHWVRQAPGKGLEWVAIIWYDGSNKYYADSVKGRFTISRDNSKNTLYLQMNSLRAEDTAVYYCARDPGYYYGMDVWGQGTTVTVSS VL: EIVLTQSPDFQSVTPKEKVTITCRASQRIGSSLHWYQQKPDQSPKLLIKYASQSFSGVPSRFSGSGSGTDFTLTINSLEAEDAATYYCHQSGRLPLTFGGGTKVEIKR | 0.058 µg/mL | – | – | –
modified anti-MAdCAM monoclonal antibody 6.34.2-mod (antibody, human IgG2, kappa, V domains shown, human IgG2 kappa, made in HEK 293T cells; signal peptide left out) VH: QVQLVESGGGVVQPGRSLRLSCAASGFTFSSYGMHWVRQAPGKGLEWVAVISNDGNNKYYADSVKGRFTISRDNSKNTLYLQMNSLRAEDTAVYYCARDSTAITYYYYGMDVWGQGTTVTVSS VL: DIQMTQSPSSLSASVGDRVTITCRASQSISSYLNWYQQKPGKAPKLLIYAASGLKRGVPSRFSGSGSGTDFTLTISSLQPEDFATYYCHQSYSLPFTFGPGTKVDIKR | 0.049 µg/mL | – | – | –
modified anti-MAdCAM monoclonal antibody 6.67.1-mod (antibody, human IgG2, kappa, V domains shown, human IgG2 kappa, made in HEK 293T cells; signal peptide left out) VH: QVQLQESGPGLVKPSETLSLTCTVSGDSISSNYWSWIRQPAGKGLEWIGRIYTSGGTNSNPSLRGRVTMSVDTSKNQFSLKLSSVTAADTAVYYCARDRITIIRGLIPSFFDYWGQGTLVTVSS VL: not shown | 0.037 µg/mL | – | – | –
modified anti-MAdCAM monoclonal antibody 6.77.1-mod (antibody, human IgG2, kappa, V domains shown, human IgG2 kappa, made in HEK 293T cells; signal peptide left out) VH: EVQLVESGGGLVKPGGSLRLSCAASGFTFSSYSMNWVRQAPGKGLEWVSSISSSSSYIYYADSVKGRFTISRDNAKNSLYLQMNSLRAEDTAVYYCARDGYSSGWSYYYYYGMDVWGQGTTVTVSS VL: DIVMTQTPLSLSVTPGQPASISCKSSQSLLLSDGKTYLNWYLQKPGQPPQLLIYEVSNRFSGVPDRFSGSGSGTDFTLKISRVEAEDVGVYSCMQSIQLMSSFGQGTKLEIKR | 0.077 µg/mL | – | – | –
